The values below are quoted from earlier work in US20240307501A1 (priority 2021, published 2024).

The conditions of this data set: chronic doses of glucagon, patients with CHI, across 2 studies.

Take “Glucagon: native glucagon used off-label by IV or continuous SC infusion for CHI”: the “patients with erythema necrolyticum” value is 4 out of 11.
